Measurements taken from publication PMC7985710.

Tests used:
[1] = biological target: Human HDL, double-radiolabeled; assay: [125I]-HDL cell association on transfected COS-7 cells; details: COS-7 cells transiently expressing WT or mutant SR-BI; n = 3 independent transfections; empty vector bar est. 30 % of WT; parent: est. 100; read off a plot
[2] = biological target: WT scavenger receptor class B type I (human SR-BI) (human) (UniProt Q8WTV0); assay: radioligand binding; [^125I]-HDL binding: transfected COS-7 cells incubated with 10 μg/ml double-radiolabeled human HDL for 1.5 h at 4°C
[3] = biological target: R174C-SR-BI (human variant of scavenger receptor class B type I) (human) (UniProt Q8WTV0); assay: as above

Row | percent of parent [1] | HDL binding (raw value) (ng/mg protein) [2] | HDL binding, percent of WT-SR-BI [3] | Substance
1 | 44 % of WT | – | – | WT scavenger receptor class B type I (human SR-BI) (from UniProt Q8WTV0-2) R174D; D185R
2 | 72 % of WT | – | – | WT scavenger receptor class B type I (human SR-BI) (from UniProt Q8WTV0-2) R174K
3 | – | 22.7 | 31.3% | Human HDL, double-radiolabeled (complex)
4 | 82 % of WT | – | – | WT scavenger receptor class B type I (human SR-BI) (from UniProt Q8WTV0-2) D185R
